Two molecules from patent publication US7879859B2, “Diagnosis and treatment of type 2 diabetes and other disorders” (Merck Sharp & Dohme Corp., priority 2005, dated 2011) can be followed below.

Several values for one entry are separate records, joined by “and”; a condition that tells them apart may be missing. Equal entries are not always repeated. d = 2'-deoxy (DNA); r = 2'-OH (RNA)

Series [1] has as its system isolated mouse islets. Nature of the series: Glucose-stimulated insulin secretion (GSIS) in isolated mouse islets. Format: cell-based. Particulars: 10 nM Octreotide, FIG. 1. The procedure: Pancreatic islets of Langerhans were isolated from the pancreas of normal C57BL/6J mice (Jackson Laboratory, Maine) by collagenase digestion and discontinuous Ficoll gradient separation, a modification of the original method of Lacy and Kostianovsky (Lacy et al., Diabetes 16:35-39, 1967). The islets were cultured overnight in RPMI 1640 medium (11 mM glucose) before GSIS assay. To measure GSIS, islets were first preincubated for 30 minutes in the Krebs-Ringer bicarbonate (KRB) buffer with 2 mM glucose (in petri dishes). The KRB medium contains 143.5 mM Na^+, 5.8 mM K^+, 2.5 mM Ca^2+, 1.2 mM Mg^2+, 124.1 mM Cl^−, 1.2 mM PO4^3−, 1.2 mM […], 25 mM CO3^2−, 2 mg/ml bovine serum albumin (pH 7.4). The islets were then transferred to a 96-well plate (one islet/well) and incubated at 37° C. for 60 minutes in 200 μl of KRB buffer with 2 or 16 mM glucose, and other agents to be tested such as octreotide and a SST3 antagonist. (Zhou et al., J. Biol. Chem. 278:51316-51323, 2003.) Insulin was measured in aliquots of the incubation buffer by ELISA with a commercial kit (ALPCO Diagnostics, Windham, N.H.).

For series [2], the system named is INS-1 (832/13) cells. Nature of the series: GSIS assay after siRNA mediated gene knockdown. In kind it is cell-based, rat. Particulars: compared to random sequence siRNA, 48 hours after electroporation. Here is the method:
Three 21-mer siRNA oligos were designed against each candidate gene and used as a pool at the final concentration of 20 uM. The siRNA oligos were delivered to the cells by Nucleofector Device (Amaxa, Gaithersburg, Md.). The INS-1 (832/13) cells were trypsinized, centrifuged, and resuspended in 100 ul Nucleofector solution V (2.25×10^6 cells per reaction). Seven and a half microliters of pooled siRNA were then added to the cell suspension. The cells were electroporated with Amaxa Nucleofector Device program T21. After electroporation, the cells were transferred and split into 9 wells in 96-well plate with 200 ul of regular culture medium (RPMI 1640 with 10% FCS and 11 mM glucose).
GSIS assays were performed after 48 hours. Prior to the assay, cells were washed once with glucose-free Krebs-Ringer Bicarbonate (KRB) medium and cells were incubated with the KRB medium for another 2 hours. The medium were replaced with fresh KRB supplemented with 2, 8, and 16 mM glucose and the cells were incubated for another 2 hours. Supernatants were taken out at the end of incubation for insulin measurement by Ultrasensitive Rat Insulin ELISA kit (ALPCO, Salem, N.H.).
GSIS assays were performed 48 hours after electroporation. The ratios of insulin concentration measured between 8 mM and 2 mM (G8/G2) and 16 mM and 2 mM (G16/G2) glucose treatments are functional readouts for GSIS. […]

Series [3] concerns sst3 mRNA. The series can be described thus: sst3 knockdown by Taqman real-time PCR. In kind it is cell-based, rat. Particulars: 48 hours after siRNA treatment; INS-1 832/13 cells. The procedure: The degree of gene knockdown by the siRNA oligos was quantified by Taqman real-time PCR also at 48 hours after electroporation. The method consistently obtained >70% knockdown of the target genes mRNA. We used PDE3b (phosphodiesterase 3B) and GCK (glucokinase) as two positive controls. As shown in Example 5, Table 6 (infra), compared to control-shocked INS-1 cells (using random sequence siRNA oligos), knocking down PDE3b increased GSIS by 1.5 to 3 fold, consistent with its role in hydrolyzing cAMP, a key positive mediator of GSIS.
The degree of sst3 knockdown was also examined 48 hours after siRNA treatment using Taqman real-time PCR. The rat sst3 specific probes were designed using Primer Express Software (Applied Biosystem) based on SEQ ID NO: 7 (Forward Primer: […] (SEQ ID NO: 15); Reverse Primer: […] (SEQ ID NO: 16); Probe: […] (SEQ ID NO: 17)). We observed about 55-75% reduction of sst3 mRNA in siRNA-treated cells.
On the technique in general: Real-time PCR tracks product formation cycle by cycle.

`C[C@@H](O)[C@@H]1NC(=O)[C@H](CCCCN)NC(=O)[C@@H](Cc2c[nH]c3ccccc23)NC(=O)[C@H](Cc2ccccc2)NC(=O)[C@@H](NC(=O)[C@H](N)Cc2ccccc2)CSSC[C@@H](C(=O)N[C@H](CO)[C@@H](C)O)NC1=O` [Octreotide]: the “Effect on GSIS” value in series [1] was “significantly suppressed”.

B1: si-SST3: pool of three pairs of siRNA oligos against rat sst3 (SEQ ID NO: 9-14) (nucleic acid)
chain 1: CCUUUCGGCUCUCUCAUGUTT
chain 2: GGGUUUGCUGGGCAAUUCATT
chain 3: CUGACGAACUCUUCAUGCUTT
chain 4: ACAUGAGAGAGCCGAAAGGTT
chain 5: UGAAUUGCCCAGCAAACCCTT
chain 6: AGCAUGAAGAGUUCGUCAGTT
modifications: sugars from the 5' end r19 d2, backbone not given here
Take B1: the “Normalized fold of stimulation of GSIS, G8/G2” value in series [2] (insulin ratio 8 mM/2 mM glucose) was 2.9 and 3 and 2.8. The “Normalized fold of stimulation of GSIS, G16/G2” value in series [2] (insulin ratio 16 mM/2 mM glucose) was 4.4 and 2.9 and 2.7 and 4.3. Also, the “Reduction of sst3 mRNA” value in series [3] is given as 55-75%.
